According to publication PMC2665213 (Nucleic Acids Research, 2009):
Where two headings read alike, the source gives them in different places.

Key:
SEC [1] = biological target: the molecule itself; test: SEC
SEC [2] = biological target: the molecule itself; test: SEC; remark: listed apart in the source
TDP-43s (RRM1-RRM2) [3] = biological target: T1, TDP-43s (RRM1-RRM2) (mouse, UniProt Q921F2 101-265); test: filter binding
TDP-43 RRM2 [4] = biological target: T2, TDP-43 RRM2 (mouse, UniProt Q921F2 192-265); test: filter binding
TDP-43 RRM1 [5] = biological target: T3, TDP-43 RRM1 (mouse, UniProt Q921F2 101-191); test: filter binding
TDP-43s (RRM1-RRM2) [6] = biological target: T1, TDP-43s (RRM1-RRM2); test: filter binding; remark: listed apart in the source
TDP-43 RRM2 [7] = biological target: T2, TDP-43 RRM2; test: filter binding; remark: listed apart in the source
TDP-43 RRM1 [8] = biological target: T3, TDP-43 RRM1; test: filter binding; remark: listed apart in the source
TDP-43 RRM2 [9] = biological target: T2, TDP-43 RRM2; test: crystal structure

B1: TDP-43s (truncated mouse TAR DNA-binding protein 43 covering both RRM domains) (domain or fragment)
chain: MRGSHHHHHHGSQKTSDLIVLGLPWKTTEQDLKDYFSTFGEVLMVQVKKDLKTGHSKGFGFVRFTEYETQVKVMSQRHMIDGRWCDCKLPNSKQSPDEPLRSRKVFVGRCTEDMTAEELQQFFCQYGEVVDVFIPKPFRAFAFVTFADDKVAQSLCGEDLIIKGISVHISNAEPKHNKLN
SEC [1]
  stoichiometry N: 2

B2: RRM1 (first RRM domain of mouse TDP-43) (domain or fragment, UniProt Q921F2 101-191, looked up)
chain: QKTSDLIVLGLPWKTTEQDLKDYFSTFGEVLMVQVKKDLKTGHSKGFGFVRFTEYETQVKVMSQRHMIDGRWCDCKLPNSKQSPDEPLRSR
SEC [1]
  stoichiometry N: 4

B3: RRM2 (second RRM domain of mouse TDP-43) (domain or fragment)
chain: MRGSHHHHHHGSKVFVGRCTEDMTAEELQQFFCQYGEVVDVFIPKPFRAFAFVTFADDKVAQSLCGEDLIIKGISVHISNAEPKHNKLN
SEC [2]
  stoichiometry N: 2
SEC [1]
  stoichiometry N: 4

B4: (UG)6 (ssRNA)
RNA: UGUGUGUGUGUG
TDP-43s (RRM1-RRM2) [3]
  Kd: 14.2 ± 1.4 nM
TDP-43 RRM2 [4]
  Kd: 4240 nM
TDP-43 RRM1 [5]
  Kd: 65.2 nM

B5: (UG)8 (ssRNA)
RNA: UGUGUGUGUGUGUGUG
TDP-43s (RRM1-RRM2) [6]
  Kd: 2.79 nM

B6: (UG)3 (ssRNA)
RNA: UGUGUG
TDP-43s (RRM1-RRM2) [6]
  Kd: 3060 nM
TDP-43 RRM2 [7]
  Kd: 379 nM
TDP-43 RRM1 [8]
  Kd: 4690 nM

B7: 10-mer crystal ssDNA (ssDNA)
DNA: GTTGAGCGTT
TDP-43 RRM2 [9]
  binding result: binds

B8: (UG)4 (ssRNA)
RNA: UGUGUGUG
TDP-43s (RRM1-RRM2) [6]
  Kd: 115 nM
